Measured values: article PMC10123652, “An Antibody Targeting Fibroblast Activation Protein Simultaneously Fused to Interleukin-2 and Tumor Necrosis Factor Selectively Localizes to Neoplastic Lesions” (Antibodies, 2023)

How the values were obtained:
IL2-7NP2-TNF^mut (human) = experiment: SEC; Superdex 200 Increase 10/300 GL; purified protein dialyzed against PBS pH 7.4; IgG (150 kDa) and SIP (80 kDa) as controls
[1] = molecular target: T1, recombinant human fibroblast activation protein (FAP) (Homo sapiens, UniProt Q12884); experiment: ELISA; plate coated with 0.1 µM human FAP overnight at 4 °C in 50 mM HEPES, 100 mM NaCl, pH 7.4; serial dilutions of IL2-7NP2-TNF^mut in 2% milk-PBS, 4 h at RT; detection with Protein A-HRP; triplicate; conditions: both partners purified
T1 construct: also called human FAP antigen; hFAP
T1 sequence (Q12884 whole entry): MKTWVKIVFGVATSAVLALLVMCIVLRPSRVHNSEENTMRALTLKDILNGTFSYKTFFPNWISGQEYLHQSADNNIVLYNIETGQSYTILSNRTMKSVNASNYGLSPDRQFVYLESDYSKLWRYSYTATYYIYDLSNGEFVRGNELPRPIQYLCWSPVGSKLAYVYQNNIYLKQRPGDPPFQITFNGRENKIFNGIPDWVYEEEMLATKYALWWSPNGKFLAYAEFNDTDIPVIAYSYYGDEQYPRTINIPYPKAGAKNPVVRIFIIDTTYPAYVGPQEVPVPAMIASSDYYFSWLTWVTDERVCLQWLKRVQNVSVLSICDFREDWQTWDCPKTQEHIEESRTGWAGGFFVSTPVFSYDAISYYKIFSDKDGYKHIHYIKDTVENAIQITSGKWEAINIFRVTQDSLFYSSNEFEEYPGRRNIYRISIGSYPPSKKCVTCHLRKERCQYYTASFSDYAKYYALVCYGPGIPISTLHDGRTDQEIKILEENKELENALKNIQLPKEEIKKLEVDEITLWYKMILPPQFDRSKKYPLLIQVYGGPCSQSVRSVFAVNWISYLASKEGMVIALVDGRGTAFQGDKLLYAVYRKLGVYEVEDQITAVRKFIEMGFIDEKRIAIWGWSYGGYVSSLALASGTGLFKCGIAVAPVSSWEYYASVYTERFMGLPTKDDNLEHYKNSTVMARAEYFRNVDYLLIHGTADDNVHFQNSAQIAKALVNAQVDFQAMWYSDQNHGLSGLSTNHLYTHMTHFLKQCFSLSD

B1: IL2-7NP2-TNF^mut (other, human)
VH: EVQLLESGGGLVQPGGSLRLSCAASGFTFSSYAMSWVRQAPGKGLEWVSAIGSVGGPTYYADSVKGRFTISRDNSKNTLYLQMNSLRAEDTAVYYCAKRLAWFDYWGQGTLVTVSS
VL: EIVLTQSPGTLSLSPGERATLSCRASQSVSSSYLAWYQQKPGQAPRLLIYGASSRATGIPDRFSGSGSGTDFTLTISRLEPEDFAVYYCQQSGKGPLTFGQGTKVEIK
notes: wild-type human interleukin-2 (IL2), N-terminal moiety of the fusion; mutated version of human TNF (TNFα); Non-covalent homotrimer; also called dual-cytokine antibody fusion protein
stoichiometry N (IL2-7NP2-TNF^mut (human)): 3
Kd [1]: ~0.1 nM
